Results as given in patent publication US20260152552A1 (CURON BIOPHARMACEUTICAL SHANGHAI, published 2026).
Where a chain is given by its changes, count along the chain named.

B1: humanized anti-L1CAM antibody hz49E10H1H7L6 (antibody, V domains shown)
VH: QVQLQESGPGLVKPSQTLSLTCTVSGGSISSDYAWNWIRQPPGKGLEWMGYITYSGTTTYNPSLKSRITISRDTSKNQFSLKLSSVTAADTAVYYCTLDHYGNYAYFDYWGQGTTVTVSS
VL: DIQMTQSPSSLSASVGDRVTITCRASSSVSFMHWYQQKPGKAPKPWIYASSNLVSGVPSRFSGSGSGTDFTLTISSLQPEDFATYYCQQWSSNPSTFGGGTKVEIK
B2: humanized anti-L1CAM antibody hz103E9B3H6L5 (antibody, V domains shown)
VH: EVQLVQSGAEVKKPGASVKVSCKASGYTFTSYTMHWVRQAPGQGLEWMGDINPNYGGTSYNEKFKDRATMTTDTSTSTAYMELRSLRSDDTAVYYCAREGATGTWYFDVWGQGTTVTVSS
VL: B1 VL with R24S, H33F, W46L, A49L, S50T, V54A, S91R, S95P
B3: humanized anti-L1CAM antibody hz103E9B3H5L6 (antibody, V domains shown)
VH: B2 VH with A68V
VL: B1 VL with R24S, H33F, A49L, S50T, V54A, S91R, S95P
B4: humanized anti-L1CAM antibody hz49E10H1H6L5 (antibody, V domains shown)
VH: B1 VH with Q1D, M49I, I68V
VL: B1 VL with P45L, W46L
B5: humanized anti-L1CAM antibody hz49E10H1H7L5 (antibody, V domains shown)
VH: B1 VH
VL: B1 VL with P45L, W46L
B6: humanized anti-L1CAM antibody hz49E10H1H7L7 (antibody, V domains shown)
VH: B1 VH
VL: B1 VL with D1Q, F70Y
B7: humanized anti-L1CAM antibody hz103E9B3H5L5 (antibody, V domains shown)
VH: B2 VH with A68V
VL: B1 VL with R24S, H33F, W46L, A49L, S50T, V54A, S91R, S95P
B8: humanized anti-L1CAM antibody hz49E10H1H4L7 (antibody, V domains shown)
VH: B1 VH with M49I, I68V, R72V, T97A, L98R
VL: B1 VL with D1Q, F70Y
B9: humanized anti-L1CAM antibody hz49E10H1H8L5 (antibody, V domains shown)
VH: B1 VH with Q1D, K44N
VL: B1 VL with P45L, W46L
B10: humanized anti-L1CAM antibody hz103E9B3H5L4 (antibody, V domains shown)
VH: B2 VH with A68V
VL: B1 VL with R24S, H33F, P45L, W46L, A49L, S50T, V54A, S91R, S95P
B11: humanized anti-L1CAM antibody hz49E10H1H6L6 (antibody, V domains shown)
VH: B1 VH with Q1D, M49I, I68V
VL: B1 VL
B12: humanized anti-L1CAM antibody hz103E9B3H7L5 (antibody, V domains shown)
VH: B2 VH with M48I, M70L
VL: B1 VL with R24S, H33F, W46L, A49L, S50T, V54A, S91R, S95P
B13: humanized anti-L1CAM antibody hz49E10H1H6L7 (antibody, V domains shown)
VH: B1 VH with Q1D, M49I, I68V
VL: B1 VL with D1Q, F70Y
B14: humanized anti-L1CAM antibody hz49E10H1H8L7 (antibody, V domains shown)
VH: B1 VH with Q1D, K44N
VL: B1 VL with D1Q, F70Y
B15: humanized anti-L1CAM antibody hz103E9B3H7L4 (antibody, V domains shown)
VH: B2 VH with M48I, M70L
VL: B1 VL with R24S, H33F, P45L, W46L, A49L, S50T, V54A, S91R, S95P
B16: humanized anti-L1CAM antibody hz103E9B3H6L4 (antibody, V domains shown)
VH: B2 VH
VL: B1 VL with R24S, H33F, P45L, W46L, A49L, S50T, V54A, S91R, S95P
B17: humanized anti-L1CAM antibody hz49E10H1H5L6 (antibody, V domains shown)
VH: B1 VH with Q1D, T97A, L98R
VL: B1 VL
B18: humanized anti-L1CAM antibody hz49E10H1H4L6 (antibody, V domains shown)
VH: B1 VH with M49I, I68V, R72V, T97A, L98R
VL: B1 VL
B19: humanized anti-L1CAM antibody hz103E9B3H6L6 (antibody, V domains shown)
VH: B2 VH
VL: B1 VL with R24S, H33F, A49L, S50T, V54A, S91R, S95P
B20: humanized anti-L1CAM antibody hz49E10H1H5L5 (antibody, V domains shown)
VH: B1 VH with Q1D, T97A, L98R
VL: B1 VL with P45L, W46L
B21: humanized anti-L1CAM antibody hz49E10H1H5L7 (antibody, V domains shown)
VH: B1 VH with Q1D, T97A, L98R
VL: B1 VL with D1Q, F70Y
B22: humanized anti-L1CAM antibody hz49E10H1H4L5 (antibody, V domains shown)
VH: B1 VH with M49I, I68V, R72V, T97A, L98R
VL: B1 VL with P45L, W46L
B23: humanized anti-L1CAM antibody hz49E10H1H8L6 (antibody, V domains shown)
VH: B1 VH with Q1D, K44N
VL: B1 VL
B24: humanized anti-L1CAM antibody hz103E9B3H7L6 (antibody, V domains shown)
VH: B2 VH with M48I, M70L
VL: B1 VL with R24S, H33F, A49L, S50T, V54A, S91R, S95P
B25: humanized anti-L1CAM antibody hz26A12C1H3L2 (antibody, V domains shown)
VH: QVQLVQSGAEVKKPGSSVKVSCKASGYTFTNYWIQWVRQAPGQGLEWIGYINPSTYYSDYAQKFQGRVTLTADESTSTAYMELSSLRSEDTAVYYCARRQFGLPLFDYWGQGTTVTVSS
VL: DIQMTQSPSSLSASVGDRVTITCRASQDVGTAVAWYQQKPGKVPKLLIYWASTLHSGVPSRFSGSGSGTDFTLTISSLQPEDVATYYCQQYSNYPLTFGGGTKVEIK
B26: humanized anti-L1CAM antibody hz26A12C1H2L3 (antibody, V domains shown)
VH: B25 VH with I48M, L70I
VL: B25 VL with Y87F
B27: humanized anti-L1CAM antibody hz26A12C1H3L1 (antibody, V domains shown)
VH: B25 VH
VL: B25 VL with V33L, H55Q
B28: humanized anti-L1CAM antibody hz26A12C1H4L1 (antibody, V domains shown)
VH: B25 VH with A61N, E74K
VL: B25 VL with V33L, H55Q
B29: humanized anti-L1CAM antibody hz26A12C1H3L3 (antibody, V domains shown)
VH: B25 VH
VL: B25 VL with Y87F
B30: humanized anti-L1CAM antibody hz26A12C1H2L1 (antibody, V domains shown)
VH: B25 VH with I48M, L70I
VL: B25 VL with V33L, H55Q
B31: humanized anti-L1CAM antibody hz26A12C1H4L3 (antibody, V domains shown)
VH: B25 VH with A61N, E74K
VL: B25 VL with Y87F
B32: humanized anti-L1CAM antibody hz26A12C1H2L2 (antibody, V domains shown)
VH: B25 VH with I48M, L70I
VL: B25 VL
B33: humanized anti-L1CAM antibody hz26A12C1H4L2 (antibody, V domains shown)
VH: B25 VH with A61N, E74K
VL: B25 VL

Molecular target: T1, human L1CAM (L1 cell adhesion molecule), endogenously expressed on the surface of HeLa cells (human, UniProt P32004 20-1257)
T1 construct: whole, on cells; also called CD171
T1 sequence (P32004 20-1257): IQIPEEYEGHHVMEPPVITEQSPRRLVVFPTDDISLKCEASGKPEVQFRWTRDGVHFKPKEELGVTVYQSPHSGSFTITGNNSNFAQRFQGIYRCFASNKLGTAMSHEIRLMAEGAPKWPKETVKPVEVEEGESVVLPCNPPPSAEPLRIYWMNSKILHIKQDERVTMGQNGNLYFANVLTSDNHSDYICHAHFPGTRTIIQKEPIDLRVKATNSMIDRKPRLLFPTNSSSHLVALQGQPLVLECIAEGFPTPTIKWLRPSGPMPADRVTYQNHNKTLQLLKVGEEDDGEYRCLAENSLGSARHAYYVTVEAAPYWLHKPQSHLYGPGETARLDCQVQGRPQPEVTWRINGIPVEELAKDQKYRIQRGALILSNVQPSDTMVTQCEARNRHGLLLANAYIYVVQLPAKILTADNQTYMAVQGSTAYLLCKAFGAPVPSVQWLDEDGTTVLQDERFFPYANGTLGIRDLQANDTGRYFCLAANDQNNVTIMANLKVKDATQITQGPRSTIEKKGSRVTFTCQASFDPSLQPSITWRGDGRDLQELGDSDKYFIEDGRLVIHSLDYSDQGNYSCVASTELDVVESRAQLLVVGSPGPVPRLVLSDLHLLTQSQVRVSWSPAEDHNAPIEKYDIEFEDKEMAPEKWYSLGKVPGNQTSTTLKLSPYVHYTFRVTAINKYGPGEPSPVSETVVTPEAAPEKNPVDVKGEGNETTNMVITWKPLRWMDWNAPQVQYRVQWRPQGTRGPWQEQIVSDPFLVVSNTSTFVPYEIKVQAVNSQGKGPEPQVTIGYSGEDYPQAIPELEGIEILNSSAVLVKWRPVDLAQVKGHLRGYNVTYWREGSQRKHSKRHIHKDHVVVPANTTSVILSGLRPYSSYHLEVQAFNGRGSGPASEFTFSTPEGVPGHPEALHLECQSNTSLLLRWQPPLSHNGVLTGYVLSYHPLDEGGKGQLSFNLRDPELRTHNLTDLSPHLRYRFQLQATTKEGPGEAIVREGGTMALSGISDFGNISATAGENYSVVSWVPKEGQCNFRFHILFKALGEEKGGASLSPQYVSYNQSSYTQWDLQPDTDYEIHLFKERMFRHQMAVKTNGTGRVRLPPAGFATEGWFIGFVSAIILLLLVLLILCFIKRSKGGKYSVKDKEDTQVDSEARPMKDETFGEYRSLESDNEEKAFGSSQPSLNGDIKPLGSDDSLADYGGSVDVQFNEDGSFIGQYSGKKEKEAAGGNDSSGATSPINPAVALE
Assay: flow cytometry on HeLa cells (endogenous human L1CAM)
Description: The experimental principle is as follows: HeLa cells express high levels of L1CAM protein on their surface. After incubating humanized L1CAM antibodies with the cells, the binding ability of the antibodies to L1CAM on the surface of HeLa cells can be determined by flow cytometry. The experimental method is descripted as following: Humanized L1CAM antibodies (Human IgG1-Kappa) are diluted in complete medium in a four-fold serial dilution, with seven concentration gradient points. HeLa cells are cultured in DMEM complete medium (Corning, 10-013-CVR) containing 10% FBS (Gibco, 10099-141) and 100 U/mL penicillin mixture (Thermofisher, 15140122). When the cell coverage in the culture container reaches 80-90%, TrypLE (Thermofisher, 12604-013) is used to digest the HeLa cells from the culture container, and they are seeded in a 96-well plate (AXYGEN, P-96-450V-C) at a density of 2.2×10⁶ cells/ml, with 100,000 cells (45 μL complete medium) per well. Then, 5 μL of the antibody dilution is added to each well, gently mixed, and the 96-well plate is incubated at 4° C. for 1 hour. Then, 150 μL of PBS solution containing 2% FBS (Corning, 21-040-CVC) is added to each well, centrifuged at 1400 rpm for 4 minutes, the supernatant is removed, and the wells are washed once more. Then, 50 μL of Alexa Flour 647-labeled goat anti-human fluorescent secondary antibody (Jacksonimmuno, 109-605-088) diluted 1:800 is added to each well, and the 96-well plate is incubated at 4° C. for 0.5 hours. The cells are washed twice with PBS solution containing 2% FBS, then resuspended in 120 μL of PBS, and the cell surface fluorescence signal is detected using a flow cytometer (BD FACS Celesta), obtaining the median fluorescence intensity (MFI). A dose-response curve is generated, and the half-maximal effective concentration (EC50) is calculated using non-linear regression with GraphPad software.

Question: For B1, which EC50 is on record?
Answer: 1.05 nM

Question: With B2 as the binder, how does the EC50 read?
Answer: 1.48 nM

Question: How did the EC50 turn out when B3 was run?
Answer: 1.93 nM

Question: How did the EC50 turn out when B4 was run?
Answer: 24.3 nM

Question: How did the EC50 turn out when B5 was run?
Answer: 10.4 nM

Question: How did the EC50 turn out when B6 was run?
Answer: 0.852 nM

Question: How did the EC50 turn out when B7 was run?
Answer: 1.68 nM

Question: B8 was tested. Which EC50 did it give?
Answer: 0.676 nM

Question: B9 was tested. Which EC50 did it give?
Answer: 9.27 nM

Question: B10 was tested. Which EC50 did it give?
Answer: 6.84 nM

Question: With B11 as the binder, how does the EC50 read?
Answer: 1.03 nM

Question: For B12, which EC50 is on record?
Answer: 2.13 nM

Question: With B13 as the binder, how does the EC50 read?
Answer: 0.996 nM

Question: Which EC50 does the source give for B14 here?
Answer: 0.82 nM

Question: With B15 as the binder, how does the EC50 read?
Answer: 5.32 nM

Question: B16 was tested. Which EC50 did it give?
Answer: 6.59 nM

Question: For B17, which EC50 is on record?
Answer: 0.404 nM

Question: With B18 as the binder, how does the EC50 read?
Answer: 0.853 nM

Question: With B19 as the binder, how does the EC50 read?
Answer: 2.18 nM

Question: With B20 as the binder, how does the EC50 read?
Answer: 0.633 nM

Question: For B21, which EC50 is on record?
Answer: 0.377 nM

Question: With B22 as the binder, how does the EC50 read?
Answer: 2.15 nM

Question: For B23, which EC50 is on record?
Answer: 1.06 nM

Question: B24 was tested. Which EC50 did it give?
Answer: 2.03 nM

Question: For B25, which EC50 is on record?
Answer: 2.33 nM

Question: B26 was tested. Which EC50 did it give?
Answer: 0.853 nM

Question: For B27, which EC50 is on record?
Answer: 2.99 nM

Question: Which EC50 does the source give for B28 here?
Answer: 0.646 nM

Question: How did the EC50 turn out when B29 was run?
Answer: 0.838 nM

Question: With B30 as the binder, how does the EC50 read?
Answer: 24.7 nM

Question: With B31 as the binder, how does the EC50 read?
Answer: 0.738 nM

Question: Which EC50 does the source give for B32 here?
Answer: 7.82 nM

Question: How did the EC50 turn out when B33 was run?
Answer: 0.562 nM
